{"source": "patent US10444224B2", "about": "“Method for RNA detection and quantification” (Cornell University, priority 2011, dated 2019)", "molecules": {"B1": {"name": "Spinach-streptavidin sensor: Spinach-based streptavidin sensor RNA molecule (nucleic acid)", "chain": "GACGCGACUGAAUGAAAUGGUGAAGGACGGGUCCACGACCGACCAGAAUCAUGCAAGUGCGUAAGAUAGUCGCGGGCCGGGGUUGUUGAGUAGAGUGUGAGCUCCGUAACUAGUCGCGUC", "modifications": "listed as RNA, chemistry not given here", "notes": "Spinach-based streptavidin sensor RNA molecule"}, "B2": {"name": "Spinach: first generation derivative of 24-2, DFHBI-binding RNA aptamer (nucleic acid)", "chain 1": "GACGCGACUGAAUGAAAUGGUGAAGGACGGGUCCAGGUGUGGCUGCUUCGGCAGUGCAGCUUGUUGAGUAGAGUGUGAGCUCCGUAACUAGUCGCGUC", "chain 2": "GACGCAACUGAAUGAAAUGGUGAAGGACGGGUCCAGGUGUGGCUGCUUCGGCAGUGCAGCUUGUUGAGUAGAGUGUGAGCUCCGUAACUAGUCGCGUC", "modifications": "listed as RNA, chemistry not given here"}, "B3": {"name": "SAM sensor: Spinach-based turn-on RNA sensor for SAM, transducer stem 1 (nucleic acid)", "chain": "GACGCGACUGAAUGAAAUGGUGAAGGACGGGUCCACGAAAGGAUGGCGGAAACGCCAGAUGCCUUGUAACCGAAAGGGUUGUUGAGUAGAGUGUGAGCUCCGUAACUAGUCGCGUC", "modifications": "chemistry not given here"}, "B4": {"name": "ADP sensor: Spinach-based turn-on RNA sensor for ADP, transducer stem 3 (nucleic acid)", "chain": "GACGCGACUGAAUGAAAUGGUGAAGGACGGGUCCAGCACGAGGGGGAAACCCCGGACAAUCAGACACGGUGCUUGUUGAGUAGAGUGUGAGCUCCGUAACUAGUCGCGUC", "modifications": "listed as RNA, chemistry not given here"}, "B5": {"name": "SEQ ID NO: 59: RNA aptamer listed for fluorophore DFAN (nucleic acid)", "chain": "GGGAGACGCAACUGAAUGAAAUACUUGGGAUGGUAAUGGCCUGGAGCUGCUUCGGCAGACCCGUGCAAGGACGUGGGAGAGGGGUCCGUAACUAGUCGCGUCAC", "modifications": "listed as RNA, chemistry not given here"}}, "key": {"[1]": {"details": "Bell et al. 2000; cited from earlier work"}, "streptavidin": {"molecular_target": "streptavidin (Streptomyces avidinii, UniProt P22629)", "sequence (P22629 25-183, species assumed)": "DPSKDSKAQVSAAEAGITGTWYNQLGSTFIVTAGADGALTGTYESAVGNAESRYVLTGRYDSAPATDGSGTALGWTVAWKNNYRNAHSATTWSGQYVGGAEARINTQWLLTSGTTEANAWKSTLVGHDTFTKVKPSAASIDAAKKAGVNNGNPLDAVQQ", "assay": "Spinach-based protein sensor fluorescence activation", "assay_type": "biochemical", "details": "micromolar concentrations of protein, DFHBI included", "source_text": "Using the same strategy from Example 5-7, a streptavidin aptamer (Srisawat and Engelke, “Streptavidin Aptamers: Affinity Tags for the Study of RNAs and Ribonucleoproteins, RNA 7:632-41 (2001), which is hereby incorporated by reference in its entirety) was fused to Spinach, and the transducer domain was optimized. The resulting RNA molecule is illustrated in FIG. 16A. The sensor was separately exposed to solutions containing micromolar concentrations of streptavidin, ovalalbumin, BSA, and lysozyme. […] Thus, the approach is generalizable not just to small molecules, but also proteins."}, "[2]": {"assay": "Photobleaching curves on glass slides under continuous illumination", "assay_type": "physicochemical", "details": "immobilized on glass slides, 130 W mercury lamp, 45 min", "experimental": "Photobleaching experiments were performed on fluorescein, EGFP and 24-2-DFHBI complexes immobilized on chemically functionalized glass slides (MicroSurfaces). To immobilized fluorescein, fluorescein cadaverine (Sigma-Aldrich) was reacted in 40 mM HEPES pH 8.0 with NHS-activated glass slides for 2 h at 25° C. Slides were then incubated in 100 mM Tris pH 8.0 to quench any unreacted NHS-activated sites. […] To immobilize 24-2-DFHBI, a 3′ amine modified 21-nt DNA oligo (sequence: 5′-GGTTGTAAGTTTTAGGTTGCC-NH2-3′, SEQ ID NO: 45; Integrated DNA Technologies) was reacted with NHS-activated glass slides. Unreacted NHS-activated sites were blocked as above. 24-2 RNA was then in vitro synthesized with a 5′ overhang complimentary to the immobilized DNA oligo. Purified 24-2 RNA was denatured at 65° C. and incubated with the slide at 25° C. for 20 min to allow hybridization to the immobilized oligonucleotide. […] Images were captured every 10 s with a CoolSnap HQ2 CCD camera through a 10× air objective mounted on a Nikon TE2000 microscope and analyzed with the NIS-Elements software. […] Total fluorescence was then plotted against exposure time and normalized to the maximum intensity of each fluorophore."}, "[3]": {"assay": "Spinach-based RNA sensor fluorescence in response to SAM", "assay_type": "biochemical", "procedure": "(§2) Dose-response curves for each sensor in response to the target metabolite were determined by measuring the increase in fluorescence as a function of increasing target concentration in the presence of a fixed concentration of RNA sensor (10-50 nM) and a fixed concentration of fluorophore (10 μM). Curves were determined using a nonlinear regression analysis in Prism software and matched by least squares fitting to a standard dose-response model for 1:1 complexation.\n(§3) The optimal sensors were chosen based on their low fluorescence in the absence of metabolite and the relative increase in fluorescence upon binding to the metabolite."}, "[4]": {"assay": "Sensor activation rate, SAM sensor", "assay_type": "biochemical", "details": "1 mM SAM, 37° C.", "experimental": "(§1) A solution of RNA sensor (1 μM) and DFHBI (10 μM) was incubated with continuous stirring at 37° C. in a buffer containing 40 mM HEPES pH 7.4, 125 mM KCl and 1 mM MgCl2. The target metabolite (1 mM) was then rapidly added to the stirring solutions and fluorescence emission was recorded over a 15 min period under continuous illumination at 37° C. using the following instrumental parameters: excitation wavelength, 460 nm; emission wavelength, 500 nm; increment of data point collection, 0.05 s; slit widths, 10 nm. The fluorescence increase was then plotted against exposure time and normalized to the maximum intensity of each fluorophore."}, "[5]": {"tested_on": "endogenous SAM levels in living E. coli cells", "assay": "Live cell imaging of SAM accumulation with the SAM sensor", "assay_type": "cell-based", "parameters": "average increase in SAM levels upon treatment with methionine: dose or concentration left out as unconfirmed", "experimental": "Expression of the SAM aptamer and intracellular imaging was performed as described above for the ADP sensor: BL21-A Star E. coli cells (Invitrogen) were transformed with 40 ng of plasmid DNA expressing the tRNA-sensor chimeras in pET28c under the control of a T7 promoter. Cells were plated, grown overnight and single colonies were picked for inoculation in LB-Kan. At OD600=0.4, 1 mM of IPTG was added to the culture and shaking was continued at 37° C. for more 2 hours. 100 μL of culture was then removed, spun down to pellet the culture, and resuspended in 2 mL of pH 6.0 M9 minimal media. A 200 μl aliquot of resuspended culture was then plated on PLL-coated 24-well glass-bottom dishes (MatTek) and incubated for 45 minutes at 37° C. Adherent cells were washed twice and then incubated with 200 μM DFHBI in pH 6.0 M9 minimal media for 2 hours at 37° C. Cells were then treated with methionine alone or methionine with inhibitors by adding 2 μl of a 100× stock of the compound to a final concentration of 50 μg/ml for L-methionine, 25 μM for adenosine periodate, and 2.5 μM for MT-DADMe-ImmA. Live fluorescence images were taken with a CoolSnap HQ2 CCD camera through a 60× oil objective mounted on a Nikon TE2000 microscope and analyzed with the NIS-Elements software. The filter set used was a sputter coated filter cube with excitation filter 470/40, dichroic mirror 495 (long pass) and emission filter 525/50 (Chroma Technology).\nCells transformed with SAM sensors were grown overnight in LB-Kan. Cultures were then diluted to OD600=0.1 in 200 mL LB-Kan and grown to OD600=0.4. Cells were then induced for 2 hours with 1 mM IPTG at 37° C. with constant shaking. The entire culture was centrifuged for 5 min at 1,000×g, pellets were resuspended and washed once with M9 media and then resuspended in […] of M9 media containing 200 μM DFHBI and divided into two samples. Methionine (50 μg/ml) or vehicle was then added to either sample and cultures were incubated between 32-37° C. 25 ml aliquots were removed from methionine- and vehicle-treated sample at each time point, centrifuged for 5 min at 1,000×g, and flash frozen in liquid nitrogen. Cells were thawed on ice and lysed by resuspending the pellet in 300 μl of cold 4% perchloric acid. Insoluble material was then pelleted by spinning at 1,000×g for 5 min and the supernatant was transferred to a dialysis spin column with a 10,000 molecular weight cut off (Amicon) and spun at 10,000×g for 10 min at 4° C. A portion of the flow through (50 μl) was then injected on a Zorbax C8 column (Agilent) on an Agilent 1100 HPLC. Samples were loaded and eluted for 15 min with an aqueous buffer containing 3.6% acetonitrile, 40 mM ammonium phosphate, and 5 mM sodium 1-heptanesulfonate which was brought to pH 5.0 with hydrochloric acid. After each sample was eluted, the column was washed with a gradient of 3.6-25% acetonitrile for 30 min prior to the next samples being injected. SAM standards were used to calibrate SAM levels measured using this assay.\nPopulation analysis was carried out using NIS-Elements software. Individual cells in a captured field were manually traced as Region of Interests (ROIs) and tracked through the different time points of image capture. Fluorescence intensity was then calculated by dividing the total fluorescence by the area for each ROI, which gives the mean intensity per unit area. Fold increase in fluorescence over time is calculated as the ratio of mean intensity at a desired time point and at time zero. Values in fold increase in fluorescence over time are plotted as frequency distributions or further used in statistical analyses."}, "[6]": {"assay": "Spinach-based RNA sensor fluorescence in response to ADP", "assay_type": "biochemical", "procedure": "as §2, §3"}, "[7]": {"assay": "Sensor activation rate, ADP sensor", "assay_type": "biochemical", "details": "1 mM ADP, 37° C.", "experimental": "as §1"}, "[8]": {"tested_on": "endogenous ADP levels in living E. coli cells", "assay": "Live cell imaging of ADP dynamics with the ADP sensor", "assay_type": "cell-based", "details": "200 μM DFHBI", "experimental": "BL21-A Star E. coli cells (Invitrogen) were transformed with 40 ng of plasmid DNA expressing the tRNA-sensor chimeras in pET28c under the control of a T7 promoter. Cells were plated, grown overnight and single colonies were picked for inoculation in Luria Broth containing kanamycin (LB-Kan). At OD600=0.4, 1 mM of IPTG was added to the culture and shaking was continued at 37° C. for more 2 hours. 100 uL of culture was then removed, spun down to pelleted the culture, and resuspended in 2 mL of pH 6.0 M9 minimal media. A 200 μl aliquot of resuspended culture was then plated on poly-L-lysine (PLL)-coated 24-well glass-bottom dishes (MatTek) and incubated for 45 minutes at 37° C. Adherent cells were washed twice and then incubated with 200 μM DFHBI in pH 6.0 M9 minimal media for 45 min at 37° C. Cells then were washed twice and incubated with M9 media containing 200 μM DFHBI and the appropriate carbon source (2 mg/ml glucose, 6.65 mg/ml potassium acetate, 4.05 mg/ml glycerol or 5.51 mg/ml succinate). Live fluorescence images were taken with a CoolSnap HQ2 CCD camera through a 60× oil objective mounted on a Nikon TE2000 microscope and analyzed with the NIS-Elements software. The filter set used was a sputter coated filter cube with excitation filter 470/40, dichroic mirror 495 (long pass) and emission filter 525/50 (Chroma Technology).\nCells transformed with ADP sensor were grown overnight in LB-Kan. Cultures were then diluted to OD600=0.1 in 200 mL LB-Kan and grown to OD600=0.4. Cells were then induced for 2 hours with 1 mM IPTG at 37° C. with constant shaking. The entire culture was split in two samples and then placed in a centrifuged for 5 min at 1,000×g. Pellets were then washed once and resuspended in […] of M9 media containing 200 μM DFHBI and either 2.00 mg/ml glucose or 6.68 mg/ml potassium acetate as the carbon source. […] Aliquots of culture were removed every 30 min, pelleted, lysed, and ADP levels were measured with an ADP Fluorometric Assay Kit (Abcam) according to manufacturer's instructions."}, "[9]": {"assay": "Emission and excitation of aptamer-DFAN complex", "assay_type": "physicochemical", "details": "aptamer with DFAN"}}, "note": "Values joined by “and” are separate entries in the source; they are usually repeats but may differ in a detail not shown here. Identical values can stand only once. “Also recorded” adds a separate entry of the source.", "data": [{"molecule": "CC1=NC(=Cc2ccc(O)cc2)C(=O)N1C", "note": "[HBI, 4-(4-hydroxybenzylidene)-1,2-dimethyl-imidazol-5-one]", "values": [{"measurement": "pKa", "setting": "[1]", "result": 8.1}]}, {"molecule": "B1", "values": [{"measurement": "fluorescence activation by BSA, ovalbumin or lysozyme", "setting": "streptavidin", "result": "fail to increase fluorescence above background levels"}, {"measurement": "fluorescence activation by streptavidin", "setting": "streptavidin", "result": "specific fluorescence activation occurs only in solutions that contained streptavidin"}]}, {"molecule": "B2", "values": [{"measurement": "photobleaching during continuous illumination", "setting": "[2]", "result": "remarkable resistance to photobleaching"}]}, {"molecule": "B3", "values": [{"measurement": "increase in fluorescence in the presence of SAM", "setting": "[3]; 10 μM DFHBI, 1 mM SAM, versus no SAM", "result": "25 fold and 24 fold"}, {"measurement": "molecular discrimination: fluorescence with methionine or adenosine", "setting": "[3]; 1 mM", "result": "negligibly fluorescent; also recorded: negligible signal above background"}, {"measurement": "molecular discrimination: fluorescence with SAH", "setting": "[3]; 1 mM SAH", "result": "only minimal fluorescence; also recorded: negligible signal"}, {"measurement": "EC50", "setting": "[3]; dose-response, 10 μM fluorophore, read-out: half-maximal fluorescence (EC50), SAM", "result": 120, "unit": "µM"}, {"measurement": "time to maximal fluorescence after SAM addition", "setting": "[4]; 1 μM RNA sensor, 10 μM DFHBI", "result": "≤ 10", "unit": "min"}, {"measurement": "time to increase in fluorescence after SAM addition", "setting": "[4]", "result": "less than 10 s"}, {"measurement": "average increase in sensor fluorescence in methionine-treated cells", "setting": "[5]; 50 μg/ml methionine, 3 hr", "result": "over 6 fold"}, {"measurement": "average increase in SAM levels upon treatment with methionine", "setting": "[5]; methionine, 180 min (FIG. 9D)", "result": "six-fold"}]}, {"molecule": "B4", "values": [{"measurement": "increase in fluorescence in the presence of ADP", "setting": "[6]; 10 μM DFHBI, 1 mM ADP, versus no ADP", "result": "20 fold and 18 fold"}, {"measurement": "molecular discrimination: activation by ATP, AMP, cAMP, NAD+", "setting": "[6]; 1 mM competing molecules", "result": "negligibly activated; also recorded: specific for ADP"}, {"measurement": "EC50", "setting": "[6]; dose-response, 10 μM fluorophore, read-out: half-maximal fluorescence (EC50), ADP", "result": 270, "unit": "µM"}, {"measurement": "time to increase in fluorescence after ADP addition", "setting": "[7]", "result": "less than 10 s"}, {"measurement": "sensor fluorescence after switch to succinate or glycerol", "setting": "[8]", "result": "did not substantially increase fluorescence"}, {"measurement": "increase in sensor fluorescence over baseline after switch from glucose to acetate media", "setting": "[8]; by 3 hr", "result": "~6", "unit": "fold"}, {"measurement": "increase in sensor fluorescence over baseline after switch from glucose to acetate media", "setting": "[8]; within 30 min", "result": 1.8, "unit": "fold"}]}, {"molecule": "B5", "values": [{"measurement": "Em", "setting": "[9]", "result": "Em = 550 nm"}, {"measurement": "Ex", "setting": "[9]", "result": "Ex = 480 nm"}]}]}
